Reference: US9371519B2, “Complex type sugar chain hydrolase” (National Institute of Advanced Industrial Science and …, priority 2011, dated 2016)

Assay: Hydrolysis activity for various PA-labeled sugar chains (HPLC peak area ratio, relative to M8A)
Assay type: biochemical
Settings: 1 μM substrate, pH 5.3, 30° C.
Method: (§1) Using the Endo-Om partially purified enzyme solution of the present invention, hydrolysis activity for various PA-labeled commercially available sugar chains (TaKaRa-Bio Inc.) were measured, and the results are shown in the following (Table 1) together with the measurements in a literature on Endo-M (Non Patent Literature 6). The hydrolysis activity at that time was calculated from the peak area ratio between the PA-labeled sugar chain and its hydrolysate as substrates in HPLC, and the relative activity for the various sugar chains was calculated, with the hydrolysis activity for the sugar chain with an M8A structure set at 100%.
as §1, with “Endo-Cp” for “Endo-Om”, “2)” for “1)”
as §1, with “Endo-Pa” for “Endo-Om”, “3)” for “1)”
as §1, with “Endo-Zr” for “Endo-Om”, “4)” for “1)”
Comparison of hydrolysis activity for PA-labeled sugar chains having various structures was carried out as follows. A reaction solution containing a sodium acetate buffer at final concentration of 100 mM (pH 5.3), 0.5 M of NaCl, 1 μM of any of various PA-labeled sugar chains (TaKaRa-Bio Inc.), and an Endo-Om purified enzyme solution (total volume: 10 μl) was incubated at 30° C. for 3 to 12 hours, and heated at 95° C. for 5 minutes thereby stopping the enzyme reaction. The reaction solution was subjected to HPLC, and enzymatic activity was calculated from the peak area ratio between the PA-labeled sugar chain as the substrate and its hydrolysate. The column used herein was Cosmosil 5C18-ARII (2.0.150 mm, Nacalai Tesque, Inc.), the solvents were a 0.1 M ammonium acetate buffer (pH 4.0: solvent A), a 0.1 M ammonium acetate buffer (pH 4.0), and 0.5% 1-butanol (solvent B). Linear gradient elution was carried out using the solvent B: 5%-50% at a flow rate of 0.5 ml/min over a period of 24 minutes, and detection was carried out using a fluorescence detector (excitation wavelength 320 nm, and fluorescence wavelength 400 nm). The enzymatic activity was calculated with the activity hydrolyzing 1 μmol of the PA-labeled sugar chain in 1 minute under the above-described reaction conditions as 1 Unit, and the relative activity for various sugar chains were calculated with the hydrolysis activity for the sugar chain having an M8A structure as 100%. […]

[1] = substrate drawing 1/drawing 14/drawing 27/drawing 40 (M3B structure), M8A = 100%
[2] = substrate drawing 2/drawing 15/drawing 28/drawing 41 (M5A structure per text), M8A = 100%
[3] = substrate drawing 4/drawing 17/drawing 30/drawing 43 (high-mannose type M8A-PA sugar chain, set at 100%)
[4] = substrate drawing 5/drawing 18/drawing 31/drawing 44 (M9A structure per text), M8A = 100%
[5] = substrate drawing 6/drawing 19/drawing 32/drawing 45, M8A = 100%
[6] = substrate drawing 7/drawing 20/drawing 33/drawing 46, M8A = 100%
[7] = substrate drawing 8/drawing 21/drawing 34/drawing 47, M8A = 100%
[8] = substrate drawing 9/drawing 22/drawing 35/drawing 48, M8A = 100%

Row | Molecule | Relative activity (hydrolysis activity for PA-labeled sugar chain) [1] [%] | Relative activity (hydrolysis activity for PA-labeled sugar chain) [2] [%] | Relative activity (hydrolysis activity for PA-labeled sugar chain) [3] [%] | Relative activity (hydrolysis activity for PA-labeled sugar chain) [4] [%] | Relative activity (hydrolysis activity for PA-labeled sugar chain) [5] [%] | Relative activity (hydrolysis activity for PA-labeled sugar chain) [6] [%] | Relative activity (hydrolysis activity for PA-labeled sugar chain) [7] [%] | Relative activity (hydrolysis activity for PA-labeled sugar chain) [8] [%]
1 | Endo-Om: endo-β-N-acetylglucosaminidase from methylotrophic yeast Ogataea minuta IFO10746, amino acid sequence SEQ ID NO. 1, 772 amino acids (protein, listed as Ogataea minuta) MAQSQLLGGAVRPVFFDKLEELRRWHTQSANLSRESELDSLNVATEPFSSYERAQTGSGSRSSEPVPGDKEDPPIKLMVCHDFKGGYQDYEDAQPLGYFPHPTGSRYFLQYPQLIDQFVYFSHHRVTVPPVNWINFCHRNGIKCFGTVIFEGNASKDFEELDRLVSRDEKGDFVFVDALIKLAAHYGFDGYLLNIETTFSNTKIAADLEPFAEQLKSGLHCLDSKNELIWYDSYVFPANKVSYTNGVTESNYNFFSLSDAFFSNYWWNIKNLQENIKNVGVLGVQKKIYVGYDVWGRGTLVGKGGFDSSLACKMIAKFKSNVALFAPAWTYESLGPKDFNQNDARFWIGLFENESSISSTVPPHSSAVYKINESSFIFYTNFSSGEGNRFFSKGSEVYRKNWVNGSLQFDLPIDLHRKDKNGLQWALDKSDAFHGGACLEIKYSEIKDENGYQIFNNQMVSDFTLFNFTKECHFPTVNVKVTYKLNHKTKSTFKIKIKYIIERRFRSVQTVRTGYLTIPLLSTSGKWFTVEESFQINLQTSHEYIVLESAHVTYDEDRSADSFFRSYIVEDSAITSVIDNEEYEKLINSEIYNDDEDEDWILVPSDVSISSSESQSNDSKTQYLGRKLFGNKSTPKTRTLEGTAPLLRIGEFAIISANNYPSSNFLAVTSVKSIESSRLEGDSLVLLNWQVGEGHQKGVCYYIIYVNGAVVGLSVAPKFIYQDTELASENSASARSNYKKSGLGSSSDRKSKVRVDSVDKLGNVFTGSEVWV | 55.9 | 13.7 | 100 | 81.3 | 0.8 | 5.9 | 1.6 | 4.6
2 | Endo-Pa: endo-β-N-acetylglucosaminidase from Pichia anomala ATCC36904, amino acid sequence SEQ ID NO. 9, 656 amino acids (protein, listed as Pichia anomala) MQHDHAAIKFEEDSISSQRFSSLDEVEKWYNTKNRSPLDDLRIPRESLSHYNRFRDNNDEIKVLVCHDFKGNYQEGEDENPLGYFPHSSGQHYFIQFPSLVDLFIFFSHYKIAVPPVSWINSLHRQGIPVLGTLIFEGTDVSESDKLLEKNENGDFKYLEILCELVRHYGFDGWLVNMESHFSSVAKAQDLLLFDEALRSTLHLKVPGSKLIWYDSLITQKNRVFYQNAVNEWNYDHFSTSDLFFTNYWWNEEDLKRNILNIGLQGVKQKLFVGVDIWGRGSRIGNGGFESGLAINYLKRYSTNVALFAPAWTYENFEEDQFLIKDRKFWIGDQTSDETGGSVATYVSHYTTPVYVKDQNVKFYTNFSVGEGTKYRVFAHTVFKNNWVNGNLQLPTPIIDNEKRIDIYYKESFNGGSSLKVTQRNSILNDGKSNILQLFSFKNDIHSNNLNVSVSFKYLSEIPLNSTFQLEIKFYIERRYRSVTRVRDGTFKLPLAFSNKNWKYIETSFALPRLQIREHFVLEGLQIRWVDNVDELSSSIGTSGDFTESWIIVPQNSDPNAVYELLIGDLLVEGIKTANGNIDAVTKLSRKITLDSRSILATWKDDTEVLYWIIYVNAKFLGIAHKSLWRVQRGDKLRVDVFTRSGKLVKGEDIFI | 152 | 94.3 | 100 | 115 | 4.0 | 35.4 | 36.3 | 40.5
3 | Endo-Zr: endo-β-N-acetylglucosaminidase from Zygosaccharomyces rouxii ATCC2623, amino acid sequence SEQ ID NO. 13, 639 amino acids (protein, listed as Zygosaccharomyces rouxii) MKRINQVPGKPEITSLYFDDLNSLQRWFDKGFMDSRDLSNVPKERYSNYVKFEKDSIITIPNLSARKTEIIVCHDFKGGYQSGHDLYPNGQYGTESCKPYSLRYPEIVDKFVYFSHHCVTIPPSPWTNYLHRHSIPVLGTLILEHYPHNGELFKKNAKGEFLYVKYLVELCRKFHFEGWLINFETVFGNNSKQVIPFLRELTARVECEIYGGSVIWYDAFTTFSNKPSHQNEVNLFNYDAYENSSQFMTNYMWDSHNVGNSLRNVGALGMHSHVALGVDVWGRNMQVCRGGFESNIAIYYAKRFGTNAVIFAPGWTYENFGEDQFYEKDDIFWGNIKSTLQLDSYSDSQLSSWFVSESKKTRYFTTFFSTGSGNFFNLNGRRISNDNWVQLGLSTPFPVNSHSYLSFKDSFVGGSCLALPLSPMENGKLHLFRFEQFIKDQQKTSDSEIRVKLSYKSLGALPPVKLVIKCFVIRRGKRSKTILKVDDVSLVLPLSHSACQTAQGSTKWAVVEQIVPLPSLESRFLEEYYVEDAHLEWTMDNNHDEWLMVPERTEDLDCKLLIGSLCLEIGPHEDNNKRQIVRNGPQLSWQDNESSFMWLKLQDGKLDSVLFTPTTKVNGKQPTILECGRNGTLKFVVKK | 85.7 | 39.8 | 100 | 33.4 |  | 13.2 | 17.3 | 30.0
4 | Endo-Cp: endo-β-N-acetylglucosaminidase from Candida parapolymorpha DL-1 ATCC26012, amino acid sequence SEQ ID NO. 5, 745 amino acids (protein, listed as Candida parapolymorpha) MPRNTAKHSSLPQTNLPLSSLESSFFDSLDELANWERRIHEKSFELDELNKPTEKLAHYTRARQQSTSEDVKLLVCHDLKGGYQVNEDEDPLGYFPHPDGQHYFLQYPQLVDKFVYFSHHRVSIPPVSWINVCHRNAIKCLGTVIFEGNTYRDFEEADKLLTKQDGEYVFVRCLVALVEYFQFDGYLFNIETRFSNTRIASLLEPFLEQLRAELHVRNPSTELIWYDSYIYPENRVLYKNGVTEANYNFFSCCDSFFTNYWWNVKHLQDNIKNVGVLGSRLKVYAGYDVWGRGTMIGKGGYDSALACQMIKKYRSNVALFAPAWTYEYLARKDFTQNDTRFWIGLFDGESSMATTFKPYSSPLYKINDSNFVFYTNFGSGEGCAFYECGEKVYRDNWVNGSLQMEIPYAIHTRNKNGIQWTLSKEDSFHGGSCVEIKYNEVVDDKGYQVFNNQTINSFSLFSFVQDCSFPTVNVKLTYKLNHKTKSFFKLKIGYYIERRYRTVQKVRSGCLVVPLLSTNDQWFTIEEPFHVSLQNSHEFIVLDSATIFYEETEDPFMRAHVVEDQSTSSVIDNEEYEKLMNSEIYFDDEDEDWILVPSDISMESTDNGGRENHTWKVISNQIRKKHPKSHPSTSPVLKLGELAIINANDYPSDSFFKLMPVNSIDVRRWEGKILLIWKTNQDSVLYHLIFVDDVFQGISLVSKFVFEDQAVDEKSFKTKSGGSTKVRIDTVNRLGILVKGTDM | 37.3 | 15.1 | 100 | 21.6 | 0.4 | 4.7 | 1.1 | 3.1
